We go through two substances from publication doi:10.1101/2025.02.17.638590.

In this test the target is free tubulin (bovine) (UniProt Q6B856). As to the kind of experiment: tubulin recruitment assay.
Chain of UniProt Q6B856 (Q6B856 whole entry, looked up): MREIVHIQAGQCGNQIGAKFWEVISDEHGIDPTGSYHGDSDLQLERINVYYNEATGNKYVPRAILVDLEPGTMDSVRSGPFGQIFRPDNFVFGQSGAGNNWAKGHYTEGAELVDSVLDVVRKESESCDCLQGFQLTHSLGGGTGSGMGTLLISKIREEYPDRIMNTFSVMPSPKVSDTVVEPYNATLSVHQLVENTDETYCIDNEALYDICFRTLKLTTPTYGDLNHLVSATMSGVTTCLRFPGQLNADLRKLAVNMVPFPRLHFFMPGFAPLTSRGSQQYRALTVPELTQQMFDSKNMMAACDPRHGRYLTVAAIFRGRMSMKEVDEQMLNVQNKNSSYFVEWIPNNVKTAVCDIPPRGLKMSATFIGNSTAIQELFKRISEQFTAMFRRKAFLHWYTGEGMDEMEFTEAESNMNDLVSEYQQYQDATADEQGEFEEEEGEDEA

In turn, “MAP6d1 (from UniProt Q14BB9 1-191) (natural protein)” registered a percent of pre-polymerised microtubules with recruited free tubulin of 57%.

The substance “MAP6d1-Δ2-35 (from UniProt Q14BB9 1-191) (natural protein)” yielded a percent of stabilised microtubules with recruited free tubulin of 9%.
